Assay results from the supplement of paper PMC9170038.

Test system: MS2 coat protein
Experiment: apparent KD of MS2 coat protein; designed switch direction (-1 OFF switch, 1 ON switch): -1; higher = weaker reporter binding
Method in brief: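 The apparent KD reported per design is the median over clusters of curve fits to normalised cluster fluorescence. The RNA switches were transcribed on Illumina chips by stalled E. coli RNA polymerase. SNAP-549-labelled MS2 coat protein was titrated from 0.7 or 1.5 nM, doubling up to 3 µM, in Tris-HCl pH 7.5 buffer containing KCl, MgCl2, BSA, DTT, tRNA and Tween-20, with no input, 200 uM small-molecule ligand, or an oligonucleotide input.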

[1] = input ligand: microRNA oligo, concentration not stated

Row | Sequence | apparent KD of MS2 coat protein (input ligand: FMN 200 uM) | apparent KD of MS2 coat protein (input ligand: none) | apparent KD of MS2 coat protein [1] | apparent KD of MS2 coat protein (Eterna round: R95, input ligand: FMN 200 uM) | apparent KD of MS2 coat protein (Eterna round: R95, input ligand: microRNA oligo, concentration not stated) | apparent KD of MS2 coat protein (Eterna round: R95, input ligand: none)
1 | GCUCAACAUGAGGAUCACCCAUGUGAGGAUAUGCGAAUUUCAUCAAAAGAUGAAAUUUGCAGAAGGCACUGAGC [Omei Ex1 A35] (Eterna round: R97, puzzle: Exclusion 1) | 17.4 nM | 16.5 nM | – | – | – | –
2 | GCUCACGCAGGAUAUACAUGAGGAUCACCCAUGUUCGAAGGGCGCGGGUACAAAGUCUGUAGAAGGGCGAAAAU [Getiin] (Eterna round: R97, puzzle: Exclusion 3) | 26.1 nM | 19.8 nM | – | – | – | –
3 | GCUGCAAAUGUAGGAUAUCUGCACGUUUAGUGCAGAGAAGGACAUGAGGAUCACCCAUGUAGAUCAGCAGCAAUUAAUUUAAUU [ENG1/5-A2] (Eterna round: R96, puzzle: Exclusion NG 1) | 480 nM | 45.2 nM | 40.8 nM | – | – | –
4 | GCUGGUCAAGGAUAUACAUGAGGAUCACCCAUGUGAUCAGCAGUCCUCGGACUGCAAUGUAGAAGGUGACCAGC [E3/1-C1] (Eterna round: R97, puzzle: Exclusion 3) | 29.3 nM | 458 nM | – | – | – | –
5 | GCUGGUCGAGGAUAUACAUUCGUGCUUCGGCACGUAAGAUCACAUGAGGAUCACCCAUGUAGAAGGCGACCAGC [E2/5-A1] (Eterna round: R97, puzzle: Exclusion 2) | 930 nM | 112 nM | – | – | – | –
6 | GCUUAACAUGAGGAUCACCCAUGUUAGGAUAUGCGAACUCGUAAGAUGCAGGGAGAUUGCAGAAGGAACGUGGC [EX1 C.15] (Eterna round: R97, puzzle: Exclusion 1) | 22 nM | 18.2 nM | – | – | – | –
7 | GCUUGCUUUUUGGUUUUCAACAUGAGGAUCACCCAUGUUCGUCUUGUGCCCGGGCCCGGGCGGUGCCCGGGCCCGGG [A 9%] (Eterna round: R97, puzzle: Sensor, turn-off variant 1) | 17.9 nM | 17.8 nM | – | – | – | –
8 | GCUUGUGGGCAAGGAUAUCCUACGCUGUUCUGGUUCGUGUCUGUCACAUGAGGAUCACCCAUGUGGGAGAAGGUGCAUUUGGGU [Design 58] (Eterna round: R96, puzzle: Exclusion NG 2) | 17.7 nM | 20.9 nM | 21.2 nM | – | – | –
9 | GCUUGUGGGCAAGGAUAUCCUACGUUGUUCUGGUUCGUGUCUGUCACAUGAGGAUCACCCAUGUGGGAGAAGGUGCAUUUGGUG [Design 61] (Eterna round: R96, puzzle: Exclusion NG 2) | – | – | 12.9 nM | – | – | –
10 | GCUUUUGGGCAAGGAUAUCCUGCGCGGUUCCGGUUCGUGUCUGUCACAUGAGGAUCACCCAUGUGGGAGAAGGUGCCUGUGGUG [Design 72] (Eterna round: R96, puzzle: Exclusion NG 2) | 28.3 nM | 18.4 nM | 13.6 nM | – | – | –
11 | GGAAAAGCAGGAUAUACAUGAGGAUCACCCAUGUAGGCUCGCCGAGACGUGGAUGGACGUAGAAGGGCUAUUCC [Eternabot (L1) Solution 65] (Eterna round: R97, puzzle: Exclusion 3) | 121 nM | 28.9 nM | – | – | – | –
12 | GGAAGGAGAGGAUAUGAGGGAGAGAACAUGAGGAUCACCCAUGUGAGACCUCAGGAUCGAUCAGAAGGCUCAGUCC [AK-MS2ROC-r4-exclusion5-12] (Eterna round: R97, puzzle: Exclusion 5) | 692 nM | 232 nM | – | – | – | –
13 | GGAAGGUGAGGAUAUACUAAGCCGGAAACGGCAGGUGGGAGACAUGAGGAUCACCCAUGUAGAAGGCACGGAGA [AK-MS2ROC-r4-exclusion2-18] (Eterna round: R97, puzzle: Exclusion 2) | 703 nM | 113 nM | – | – | – | –
14 | GGAAUACAUGAGGAUCACCCAUGUAAGGAUAUGCUGAAUAUCACGGAAUAAACGUGCAGCAGAAGGUACAAAGG [Mat - Mod of my Eli Mod D46] (puzzle: Exclusion 1) | – | – | – | 103 nM | 65.9 nM | 93.6 nM
15 | GGACAUUCGGUAAGGAUAUUGACCCAACCUAGGAUCAAGAAGGUACAUGAGGAUCACCCAUGUCAGAUCCGUCA [Eternabot (Original) Solution 34] (Eterna round: R97, puzzle: Brourd's mod of Exclusion 4) | 27.4 nM | 16 nM | – | – | – | –
16 | GGACCGCGGCAAGGAUAUCUUUGUCAACAUAAAACAUGAGGAUCACCCAUGUGCAUCUUCGUGUGAGAGAAGGUGCGGCAGUCC [Isisgeri] (Eterna round: R96, puzzle: Exclusion NG 2) | 222 nM | 127 nM | 113 nM | – | – | –
17 | GGAGCAAUGGAGGAUAUCAGGAGCGCUGCUUACUGAGAAGGCCGUACAUGAGGAUCACCCAUGUCUGGGUACGC [Eternabot (L1) Solution 21] (Eterna round: R97, puzzle: Exclusion 6) | 176 nM | 167 nM | – | – | – | –
